The numbers were not newly measured in paper PMC6824834, which cites them from elsewhere.

For orientation: pKa means the negative logarithm of the acid dissociation constant.

The data set concerns the target Glu165 (UniProt position 165, VVVAYEPVWAI). Conditions: substrate-bound, closed (desolvated) active site.

Consider “Triosephosphate isomerase (TIM) (Not stated for the quoted values; residue numbering is that of Saccharomyces cerevisiae TIM (yTIM))”, for which the pKa is given as >6.
